Data reported in patent US20020045192A1, “Arf and HDM2 interaction domains and methods of use thereof” (St. Jude Children's Research Hospital, priority 2001, published 2002).

Key:
Hdm2 210-275 = molecular target: T1, Hdm2 210-275 (Homo sapiens, UniProt Q00987); test: CD-based binding assay, β-strand formation with Hdm2 210-275
T1 construct: poly-His (thrombin-cleavable, from pET28a) (cleaved yes); made in house; host or cells: E. coli BL21 (DE3)
Experimental: (§1) Spectra were recorded at 25° C. using an Aviv Model 62A DS circular dichroism spectropolarimeter (Aviv Instruments, Inc.) equipped with a thermoelectric temperature control unit. All samples were prepared in 10 mM Tris-HCl, pH 7.0 at 0.02-0.2 mM as determined by amino acid analysis. Spectra were recorded using 1 mm quartz cuveftes and reported spectra are the average of 10 scans over the range […]. Melting experiments were recorded in 10 mm quartz cuvettes with active stirring. The signal at 216 nm (β strand minimum) was used to monitor structural changes and the signal was averaged over 15 sec. The sample temperature was increased in 1° C. steps.
(§2) As discussed above, the addition of mArfN37 to Hdm2 210-304 results in the formation of supramolecular assemblies comprised of β-strands. Stepwise addition of sub-stoichiometric amounts of mArfN37 to Hdm2 210-304 increased β-strand secondary structure content as judged by the change in ellipticity at 200 nm using CD. […] The binding of mArfN37 to Hdm2 210-304, as monitored in this way, is saturable. Similar results were obtained when mArfN37 was mixed with the shorter fragment of Hdm2, Hdm2 210-275. Further, saturable binding is also observed when the Hdm2 fragments were added to an excess of mArfN37. These findings indicate that there are a limited number of binding sites for mArfN37 within Hdm2 210-304 and that discreet structures (containing β-strands) form when mArfN37 and Hdm2 210-304 (or 210-275) are mixed. […] Similar behavior is observed when mArfN37 binds Hdm2 210-275.

Hdm2 210-304 = molecular target: T2, Hdm2 210-304 (Homo sapiens, UniProt Q00987); test: CD-based binding assay, β-strand formation with Hdm2 210-304
T2 construct: poly-His (thrombin-cleavable, from pET28a) (cleaved yes); made in house; host or cells: E. coli BL21 (DE3)
T2 sequence (Q00987 210-304): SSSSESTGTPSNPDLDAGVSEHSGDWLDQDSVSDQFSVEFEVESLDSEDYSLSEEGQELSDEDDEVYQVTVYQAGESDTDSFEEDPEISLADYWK
Experimental: as §1, §2
To investigate the roles of individual Arf motifs (A1 and A2) and Arf-binding segments of Hdm2 (H1 and H2) in the interactions between Arf and Hdm2 the binding of peptides containing these small segments (A1, A2, H1, or H2) to larger protein fragments of the corresponding binding partner (mArfN37 or Hdm2 210-304) were monitored using the CD-based binding assay. […] Peptides from the Hdm2 library that were positive for mArfN37 binding on the basis of SPR (i.e. those within H1 and H2) were mixed with mArfN37 and binding was monitored in the same manner. Three peptides from the H1 segment and one from the H2 segment of Hdm2 induce β-strand secondary structure when mixed with mArfN37 (FIG. 2c). These experiments indicate that peptides containing A1, A2, H1 or H2 can interact with larger fragments of the target protein and that the interactions also occur through the formation of β-sheet secondary structure. […] Importantly, however, further reduction in the size of the interacting species led to a loss of Arf/Hdm2 binding as judged by a failure to induce structure in CD titration experiments. […] Similarly, while peptides derived from the H1 or H2 segments of Hdm2 bind mArfN37, they fail to bind peptides derived from the A1 or A2 segments of mouse or human Arf. Furthermore, mixtures of two, three, or four different peptides that contain the important binding segments (A1, A2, H1, and H2) fail to interact, in contrast to the results obtained when A1 and A2, or H1 and H2, are covalent linked in larger protein fragments. Apparently, cooperative interactions between covalently linked binding segments from one protein (A1 and A2 of Arf, or H1 and H2 of Hdm2) are minimally required for Arf/Hdm2 interactions.

T1 sequence (Q00987 210-275): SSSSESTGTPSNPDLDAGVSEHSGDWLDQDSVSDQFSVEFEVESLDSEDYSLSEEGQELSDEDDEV

Substance	induction of β-strand assembly when mixed with Hdm2 210-275 (CD) (Hdm2 210-275)	induction of β-strand secondary structure when mixed with Hdm2 210-304 (CD) (Hdm2 210-304)
human A1 (1-14): Peptide containing the human Arf motif A1, residues 1-14 (MVRRFLVTLRIRRA)	interaction	produce the random-to-β-strand structure transition
human A2 (16-30): Peptide containing the human Arf motif A2, residues 16-30 (GPPRVRVFVVHIPRL)	fail to induce β-strand assembly	produce the random-to-β-strand structure transition
mArfN37: N-terminal fragment of mouse p19^Arf corresponding to residues 1-37 (MGRRFLVTVRIQRAGRPLQERVFLVKFVRSRRPRTAS)	striking transition from random conformations to β-strand secondary structure	striking transition from random conformations to β-strand secondary structure
mouse A1 (1-14): Peptide corresponding to the mouse Arf motif A1, residues 1-14 (MGRRFLVTVRIQRA)	interaction	induce the transition from random conformations to β-strand secondary structure
mouse A2 (16-30): Peptide corresponding to the mouse Arf motif A2, residues 16-30 (RPLQERVFLVKFVRS)	fail to induce β-strand assembly	induce the transition from random conformations to β-strand secondary structure
